Measurements as given in PMC10801496, “A Novel Anti-CD47 Nanobody Tetramer for Cancer Therapy” (Antibodies, 2024).

B1: 47VHH2B10 (VHH)
VHH: QVQLVESGGGLVQPGGSLRLSCEASGFNLGYYGICWFRRAAGKEREGVACSATPDDSTYYADSVKGRFTISKDKAKNMIFLQMNDLKPEDTAVYYCVTDRKPKYGKQWLEFSEYDYWGQGTQVIVSS
notes: alpaca VHH; Cloned into pET32b+; about 17 kDa on SDS-PAGE; source: E. coli BL21DE3, purified (Ni-NTA, gel-filtration)
B2: 47VHH1H4 (VHH)
VHH: QVQLVESGGGLVQAGGSLRLSCKVSGNNFRRVNMGWYRQAPGKQRDLVAWISNDGGTYYDRSLKGRFTISRDNTKNTMFLQMDSLKPEDTAVYYCNSRPSSIFGSWGQGTQVTVSS
notes: alpaca VHH; Cloned into pET32b+; about 17 kDa on SDS-PAGE; also called native 47VHH1H4; source: E. coli BL21DE3, purified (Ni-NTA, gel-filtration)
B3: 47VHH1H4B (VHH)
VHH: B2 VHH
notes: as the VHH of m3 (47VHH1H4); IgA hinge linker; biotin acceptor domain BAD; About 25 kDa on SDS-PAGE; also called biotinylated 47VHH1H4; biotinylated 47VHH1H4 fragment; source: E. coli BL21DE3 carrying BirA, 0.3 mM biotin, purified (Ni-NTA, UNO S1 cation exchange)
B4: 47VHH1A12 (VHH)
VHH: QLQLVESGGGLVQAGGSLRLSCVVSGGTFSALTMGWFRDVPGKEREFVSAISFDTRTTYYSDSVKGRFAISRDNGLNTVYLDMNSLRPEDTAVYVCAADAQIGWVNRRAYDYDYWGQGTQVTVSS
notes: as for B1
B5: 47VHH1C17 (VHH)
VHH: QVQLVESGGGLVQAGGSLRLSCAASGHTFSSYDMGWFRQAPGKEREFVAHINWSGSTYYADSVKGRFTISGGNAKNAVYLQMNSLKPEDTAVYYCGAKYAISRTWDYWGQGTQVTVSS
notes: as for B1
B6: 47VHH1D9 (VHH)
VHH: RVQAGGSLRLSCKVSGNNFRRVNMGWYRQAPGKQRDLVAWISNDGGTYYDRSLKGRFTISRDNTKNTMFLQMDSLKPEDTAVYYCNSRPSSIFGSWGQGTQVTVSS
notes: as for B1

The binders below were run against T1, human CD47 with His tag (Homo sapiens, UniProt Q08722) (assay: SPR; recombinant CD47 anchored to a CM5 chip, nanobodies as analyte, Biacore T200). Details: both partners purified.
T1 construct: CD47, human; The alpaca was immunised with an extracellular fragment of CD47; also called recombinant CD47; source: gift from P.M. Chumakov
T1 sequence (Q08722 19-323): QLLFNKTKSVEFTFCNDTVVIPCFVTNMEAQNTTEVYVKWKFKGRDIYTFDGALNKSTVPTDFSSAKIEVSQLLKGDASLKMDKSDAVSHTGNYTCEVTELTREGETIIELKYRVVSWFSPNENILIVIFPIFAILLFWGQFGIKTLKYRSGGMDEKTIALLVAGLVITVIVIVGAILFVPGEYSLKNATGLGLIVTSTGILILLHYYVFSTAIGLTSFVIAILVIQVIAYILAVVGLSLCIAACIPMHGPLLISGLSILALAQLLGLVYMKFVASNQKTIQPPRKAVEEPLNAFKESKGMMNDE

Kd [nM]	Binder
~30000	B1
30	B2
3	B3
~30000	B4
2000	B5
400	B6
